Target: PARP-1 WT (human) (UniProt P09874)
Experiment: fluorescence polarization
Conditions: 250 mM NaCl, FP affinity: 12 mM Hepes pH 8.0, 250 mM NaCl, 4% glycerol, 5.7 mM beta-mercaptoethanol, 0.05 mg/ml BSA, RT, 5 nM probe, FP competition: same but 60 mM KCl, 8 mM

Chain of PARP-1 WT (human) (P09874 whole entry): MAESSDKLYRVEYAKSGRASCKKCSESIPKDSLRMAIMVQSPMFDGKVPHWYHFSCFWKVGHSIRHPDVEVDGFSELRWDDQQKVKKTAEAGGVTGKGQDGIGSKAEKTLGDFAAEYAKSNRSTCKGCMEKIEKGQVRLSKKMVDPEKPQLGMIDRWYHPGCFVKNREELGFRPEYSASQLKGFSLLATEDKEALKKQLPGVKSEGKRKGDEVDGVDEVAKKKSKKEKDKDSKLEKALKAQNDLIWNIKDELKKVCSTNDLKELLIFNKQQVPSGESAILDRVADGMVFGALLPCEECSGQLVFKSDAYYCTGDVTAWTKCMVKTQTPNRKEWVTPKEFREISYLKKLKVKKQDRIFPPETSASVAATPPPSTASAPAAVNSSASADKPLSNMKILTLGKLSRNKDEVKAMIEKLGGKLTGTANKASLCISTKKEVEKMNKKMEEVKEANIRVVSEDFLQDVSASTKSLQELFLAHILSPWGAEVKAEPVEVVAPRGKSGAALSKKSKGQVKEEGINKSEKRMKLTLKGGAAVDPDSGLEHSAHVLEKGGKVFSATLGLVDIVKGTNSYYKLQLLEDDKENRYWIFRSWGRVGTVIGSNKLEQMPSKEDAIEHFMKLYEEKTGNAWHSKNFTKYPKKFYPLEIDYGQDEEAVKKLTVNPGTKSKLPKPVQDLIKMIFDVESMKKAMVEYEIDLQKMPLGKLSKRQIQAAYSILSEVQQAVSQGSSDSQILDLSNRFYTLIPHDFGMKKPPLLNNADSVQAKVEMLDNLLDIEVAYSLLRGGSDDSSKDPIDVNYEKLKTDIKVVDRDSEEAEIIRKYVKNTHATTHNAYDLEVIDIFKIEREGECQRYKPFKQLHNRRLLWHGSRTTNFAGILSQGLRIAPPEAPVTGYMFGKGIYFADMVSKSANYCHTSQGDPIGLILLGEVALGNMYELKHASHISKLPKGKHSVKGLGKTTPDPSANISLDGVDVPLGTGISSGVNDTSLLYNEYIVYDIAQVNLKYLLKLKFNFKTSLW

GCTGAGCTTCTGGTGAAGCTCAGCTCGCGGCAGCTGGTGCTGCCGCGA [nick dumbbell DNA, FAM]
binding signal (fold higher affinity than without BAD) (100 uM BAD): 10 | binding signal (100 uM benzamide, scale: fold): 1

From article PMC5829251, “NAD^+ analog reveals PARP-1 substrate-blocking mechanism and allosteric communication from catalytic center to DNA-binding domains” (Nature Communications, 2018)
